Experimental data: patent US10119980B2, “Method for detection of basic peptide and reagent for detection of basic peptide” (SYSMEX CORPORATION, priority 2009, dated 2018)
pKd: −log10 of the molar value.

How the values were obtained:
[1] = biological target: T1, partial ACTH peptide (positions 1 to 24 of ACTH) (Homo sapiens, UniProt P01189); experiment: Turbidity (OD550) measurement and Hill plot analysis of albumin reagents mixed with partial ACTH peptide; assay type: binding
T1 construct: consisting of the amino acids of positions 1 to 24 of ACTH
Protocol: BSA (Sigma-Aldrich) was dissolved in Milli-Q® water (Millipore) to prepare a BSA solution (1.0 w/v %). The BSA solution was divided into two and one was designated as a non-denatured BSA solution and the other was autoclaved at 110° C. for 15 minutes to obtain a heat-denatured BSA solution.
A partial ACTH peptide (Peptide Institute, Inc.) consisting of the amino acids of positions 1 to 24 of ACTH was used as the basic peptide of interest. The peptide was dissolved in ultrapure water to prepare a sample containing the basic peptide of interest (1.0 mg/ml).
The heat-denatured BSA solution prepared in the above (1) (50 μl) was mixed with the sample prepared in (2) followed by addition of ultrapure water to prepare a total volume of 250 μl of a mixed solution (final concentration of heat-denatured BSA: 0.2 w/v %). In this preparation, the sample was mixed so as to obtain a final concentration of the partial ACTH peptide in the mixed solution of 0 to 150 μM. A comparative mixed solution was also prepared in the similar manner except that the non-denatured BSA solution was used instead of the heat-denatured BSA solution.
The thus-prepared mixed solutions were measured for absorbance at the wavelength of 550 nm (OD550) in a spectrophotometer UV-2500PC (Shimadzu Corporation). The obtained results were subjected to Hill plot analysis with KaleidaGraph (HULINKS, Inc.) to calculate the values of Kd and the Hill coefficient of heat-denatured BSA and non-denatured BSA.
BSA (Sigma-Aldrich) was dissolved in Milli-Q® water (Millipore) to prepare a BSA solution (1.0 w/v %). The BSA solution was divided into five aliquots among which one was designated as a non-denatured BSA solution (heat denaturation period: 0 min) and the rest of four were heated in an autoclave at 110° C. for 5, 15, 60 and 120 min, respectively, to obtain heat-denatured BSA solutions.
The Kd value and Hill coefficient of BSA at respective heat denaturation periods were calculated. […]
The Kd value and Hill coefficient were calculated for the mixed solutions. […]

partial ACTH peptide [2] = biological target: T2, partial ACTH peptide (Homo sapiens, UniProt P01189); experiment: Detection capacity (turbidity, OD550) at various final concentrations of reagent for detection; set-up: key: “Y” denotes turbidity appearing; “N” does the absence of turbidity
T2 construct: consisting of amino acids of positions 1 to 24 of ACTH; purchased Biologica Co
Protocol: BSA (Sigma-Aldrich) was dissolved in ultrapure water to prepare a BSA solution (5.0 w/v %). The BSA solution was heated in an autoclave at 115° C. for 15 minutes to obtain a heat-denatured BSA solution.
A partial ACTH peptide consisting of amino acids of positions 1 to 24 of ACTH (Biologica Co.) was used as the basic peptide of interest. The peptide was dissolved in ultrapure water to prepare a sample containing the basic peptide of interest (1.0 mg/ml).
The heat-denatured BSA solution prepared in (1) was mixed with 30 μl or 60 μl of the sample prepared in (2) followed by addition of ultrapure water to prepare a total volume of 250 μl of mixed solutions. In the preparation, the reagent for detection (solution of heat-denatured BSA) was mixed with the respective samples so as to obtain a final concentration of the reagent for detection in the mixed solution of 0.1 to 5%.
The thus-prepared mixed solutions were measured for values of absorbance at the wavelength of 550 nm (OD550) with a spectrophotometer UV-2500PC (Shimadzu Corporation). The results obtained are summarized in Table 6, where “Y” denotes turbidity appearing and “N” does the absence of turbidity.

partial ACTH peptide [3] = biological target: T2, partial ACTH peptide; experiment: OD550 Hill plot analysis in serum-based solution versus control solution; assay type: binding
Protocol: The peptide was dissolved in ultrapure water and mixed with serum collected from a healthy volunteer in USA (person) (SUNFCO) to prepare the serum-based sample containing the basic peptide of interest. The serum-based samples were prepared so as to adjust the final concentrations of the partial ACTH peptide and serum as shown in (3) below.
The denatured BSA solution prepared in the above (1) (50 μl) was mixed with the sample prepared in (2) followed by addition of ultrapure water to prepare a total volume of 250 μl of mixed solution containing serum (hereinafter referred to as “serum-based solution”). In the preparation, the serum-based sample was mixed so as to adjust a final concentration of the partial ACTH peptide of to 0 to 80 μM and adjust a final concentration of serum of to an equivalent to 100-fold dilution in the mixed solution. For a control, a mixed solution was also prepared without serum (hereinafter referred to as “control solution”).
The thus-prepared mixed solutions were measured for absorbance at the wavelength of 550 nm (OD550) with a spectrophotometer UV-2500PC (Shimadzu Corporation).
OD=(peptide concentration)^n/[(peptide concentration)^n+[Kd×(1+CHSA/Ki)]^n]

partial ACTH peptide [4] = biological target: T2, partial ACTH peptide; experiment: OD550 detection of basic peptide concentrated by OFFGEL fractionation from serum-containing specimen; conditions: Heat-denatured BSA: Yes; concentrated partial ACTH peptide fraction after OFFGEL fractionation, MES-HCl buffer pH 5.0
Protocol: A partial ACTH peptide consisting of amino acids of positions 1 to 24 of ACTH (Biologica Co.) was used as the basic peptide of interest. The peptide was dissolved in ultrapure water and mixed with serum of a healthy USA subject (SUNFCO) to prepare an actual serum sample containing the basic peptide of interest. The sample was prepared so as to obtain the concentrations of the partial ACTH peptide and serum as shown in (3) below.
(3) Preparation of sample solution containing concentrated basic peptide of interest. A glycerol solution (Agilent technologies; 6 ml) and an OFFGEL Buffer solution (Agilent technologies; 600 μl) were mixed followed by addition of ultrapure water to prepare a total volume of 50 ml of peptide buffer solution (×1.25), the pH of which is 3-10. This solution was mixed with the sample of the above (2) to prepare a peptide buffer solution (×1) with the concentration of 20 μM of the partial ACTH peptide and the concentration equivalent to 1000-fold dilution of serum. This solution was fractionated with using a High Resolution IPG gel for fraction whose pH is pH 3-10 on the OFFGEL fractionator (Agilent Technologies). […]
The thus-prepared mixed solutions were measured for absorbance at the wavelength of 550 nm (OD550) in a spectrophotometer UV-2500PC (Shimadzu Corporation).

[5] = Example 1, final BSA 0.2 w/v %, peptide 0 to 150 μM, OD550 Hill plot
[6] = Nucleic acid: Yes (salmon sperm DNA, final 10 μM)
[7] = heat denaturation period 5 min at 110° C.
[8] = heat denaturation period 15 min at 110° C.
[9] = heat denaturation period 60 min at 110° C.
[10] = heat denaturation period 120 min at 110° C.
[11] = Control solution (without serum)
[12] = Serum solution (serum equivalent to 100-fold dilution)

T1 sequence (P01189 138-161): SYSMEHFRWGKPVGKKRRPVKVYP

Heat-denatured BSA: BSA solution (1.0 w/v %) in Milli-Q water autoclaved at 110° C. for 15 minutes; reagent for detection
Hill coefficient n [1, 5]: 8 | pKd [1, 5]: 4.52 | Hill coefficient n ([1]; Nucleic acid: No): 11 | pKd ([1]; Nucleic acid: No): 4.40 | Hill coefficient n [1, 6]: 8 | pKd [1, 6]: 4.52 | change in OD550 with increasing partial ACTH peptide concentration ([1]; albumin reagent mixed with partial ACTH peptide): increased in a concentration dependent manner | Hill coefficient n [1, 7]: 5 | pKd [1, 7]: 4.48 | Hill coefficient n [1, 8]: 8 | pKd [1, 8]: 4.52 | Hill coefficient n [1, 9]: 6 | pKd [1, 9]: 4.55 | Hill coefficient n [1, 10]: 4 | pKd [1, 10]: 4.48 | Detection capacity (in the case of 30 μM peptide) (partial ACTH peptide [2]; final conc. of reagent 0.1 %): Y | Detection capacity (in the case of 60 μM peptide) (partial ACTH peptide [2]; final conc. of reagent 0.1 %): Y | Detection capacity (in the case of 30 μM peptide) (partial ACTH peptide [2]; final conc. of reagent 0.2 %): Y | Detection capacity (in the case of 60 μM peptide) (partial ACTH peptide [2]; final conc. of reagent 0.2 %): Y | Detection capacity (in the case of 30 μM peptide) (partial ACTH peptide [2]; final conc. of reagent 0.4 %): Y | Detection capacity (in the case of 60 μM peptide) (partial ACTH peptide [2]; final conc. of reagent 0.4 %): Y | Detection capacity (in the case of 30 μM peptide) (partial ACTH peptide [2]; final conc. of reagent 0.5 %): Y | Detection capacity (in the case of 60 μM peptide) (partial ACTH peptide [2]; final conc. of reagent 0.5 %): Y | Detection capacity (in the case of 30 μM peptide) (partial ACTH peptide [2]; final conc. of reagent 0.7 %): Y | Detection capacity (in the case of 60 μM peptide) (partial ACTH peptide [2]; final conc. of reagent 0.7 %): Y | Detection capacity (in the case of 30 μM peptide) (partial ACTH peptide [2]; final conc. of reagent 1.0 %): Y | Detection capacity (in the case of 60 μM peptide) (partial ACTH peptide [2]; final conc. of reagent 1.0 %): Y | Detection capacity (in the case of 30 μM peptide) (partial ACTH peptide [2]; final conc. of reagent 5.0 %): Y | Detection capacity (in the case of 60 μM peptide) (partial ACTH peptide [2]; final conc. of reagent 5.0 %): Y | Hill coefficient n (partial ACTH peptide [3]; [11]): 4 | pKd (partial ACTH peptide [3]; [11]): 4.60 | Hill coefficient n (partial ACTH peptide [3]; [12]): 3.4 | pKd (partial ACTH peptide [3]; [12]): 4.54 | OD550 (partial ACTH peptide [4]): 0.03
